In patent US7919300B2, “Glucose isomerase mutants” (priority 2004, dated 2011):

Substrate: OC[C@H]1OC(O)[C@H](O)[C@@H](O)[C@@H]1O
Assay: Measurement of kinetic parameters of glucose isomerase mutant MGI-4 with D-glucose as substrate
Assay type: biochemical, Thermoanaerobacterium saccharolyticum
Details: pH 6.5, 20 mM sodium phosphate, 250 μM CoCl2, 5 mM MgCl2, 10 minutes
Experimental: Fragment AFSR was amplified using primer pair 182AF (see Table 1 below) and 187SR (see Table 1) on the following condition: 20 mM Tris-HCl (pH 8.8), 10 mM KCl, 10 mM (NH4)2SO4, 2 mM MgSO4, 0.1% Triton X-100, 0.4 μM Primer 182AF and 0.4 μM Primer 187SR, 50 μM DATP, 50 μM dTTP, 50 μM dCTP, 50 μM dGTP, 1.5 U Pfu DNA polymerase, 20 ng pGEMT-TS, and the total volume was adjusted to 50 μl with distilled water. The PCR amplification program for the reaction was: 95° C., 3 min; then 35 cycles of 95° C., 50 seconds, 52° C., 30 seconds, 72° C., 180 seconds; and with an additional 5 minutes at 72° C. at the end of the reaction. The PCR product, fragment AFSR, was separated on 1% agarose gel and recovered using QIAquick Gel Extraction Kit (QIAGEN, German). Fragment SFQR was amplified using primer pair 187SF (Example 4) and 299QR (Example 5) on the following condition: 20 mM Tris-HCl (pH 8.8), 10 mM KCl, 10 mM (NH4)2SO4, 2 mM MgSO4, 0.1% Triton X-100, 0.4 μM Primer 187SF and 0.4 μM Primer 299QR, 50 μM dATP, 50 μM dTTP, 50 μM dCTP, 50 μM dGTP, 1.5 U Pfu DNA polymerase, 20 ng pGEMT-TS, and the total volume was adjusted to 50 μl with distilled water. The PCR amplification program for the reaction was: 95° C., 3 min; then 35 cycles of 95° C., 50 seconds, 52° C., 30 seconds, 72° C., 180 seconds; and with an additional 5 minutes at 72° C. at the end of the reaction. The PCR product, fragment SFQR, was separated on 1% agarose gel and recovered using QIAquick Gel Extraction Kit (QIAGEN, German). The full-length glucose isomerase gene was then amplified on the following condition: 20 mM Tris-HCl (pH 8.8), 10 mM KCl, 10 mM (NH4)2SO4, 2 mM MgSO4, 0.1% Triton X-100, 0.4 μM Primer T1 and 0.4 μM Primer T2, 50 μM dATP, 50 μM dTTP, 50 μM dCTP, 50 μM dGTP, 1.5 U Pfu DNA polymerase, 20 ng fragment T1FR (Example 2), 20 ng fragment FFAR (Example 6), 20 ng […], 20 ng fragment SFQR and 20 ng fragment QFT2 (Example 5), and the total volume was adjusted to 50 μl with distilled water. The PCR amplification program for the reaction was: 95° C., 3 min; then 35 cycles of 95° C., 50 seconds, 52° C., 30 seconds, 72° C., 180 seconds; and with an additional 5 minutes at 72° C. at the end of the reaction. The full-length mutant MGI-4 was separated on 1% agarose gel and recovered using QIAquick Gel Extraction Kit (QIAGEN, German). Plasmid pGEMT-MGI-4, generated after ligation between MGI-4 and pGEMT-Easy, was transformed into competent E. coli HB101 and the transformants were screened for clones of glucose isomerase activity on 1% MacConkey agar plates containing 1% D-xylose and 50 mg/L ampicillin. pGEMT-MGI-4 DNA was then isolated from the positive clones and sequenced. The sequencing results confirmed that the desired site-directed mutations were correctly introduced. Its amino acid sequence was shown as SEQ ID NO.: 32 (see the Sequence Listing below).
The isolation and purification of glucose isomerase mutant MGI-4 were as described in Example 9, except the plasmid used was pGEMT-MGI-4. The partially purified enzyme was shown on FIG. 1. Other glucose isomerase mutants were also isolated and purified as described in Example 9.

B1: Thermoanaerobacterium saccharolyticum glucose isomerase mutant MGI-4 (W139F/R182A/F187S/T299Q), SEQ ID NO.: 32 (Thermoanaerobacterium saccharolyticum; … (protein)
chain: MNKYFENVSKIKYEGPKSNNPYSFKFYNPEEVIDGKTMEEHLRFSIAYWHTFTADGTDQFGKATMQRPWNHYTDPMDIAKARVEAAFEFFDKINAPFFCFHDRDIAPEGDTLRETNKNLDTIVAMIKDYLKTSKTKVLFGTANLFSNPRFVHGASTSCNADVFAYSAAQVKKALEITKELGAENYVSWGGREGYETLLNTDMELELDNFARFLHMAVDYAKEIGFEGQFLIEPKPKEPTKHQYDFDVANVLAFLRKYDLDKYFKVNIEANHATLAFHDFQHELRYARINGVLGSIDANQGDMLLGWDTDQFPTDIRMTTLAMYEVIKMGGFDKGGLNFDAKVRRASFEPEDLFLGHIAGMDAFAKGFKVAYKLVKDGVFDKFIEERYASYKEGIGADIVSGKADFKSLEKYALEHSQIVNKSGRQELLESILNQYLFAE
- Km (other: MGI-4, 65° C., 65.0 °C): 27.9 mM
- kcat (other: MGI-4, 65° C., 65.0 °C): 16.817 s⁻¹
- kcat/Km (other: MGI-4, 65° C., 65.0 °C): 602 M⁻¹ s⁻¹
- Km (other: MGI-4, 80° C., 80.0 °C): 51.3 mM
- kcat (other: MGI-4, 80° C., 80.0 °C): 49.685 s⁻¹
- kcat/Km (other: MGI-4, 80° C., 80.0 °C): 968 M⁻¹ s⁻¹
